Data on two molecules can be found in publication PMC9974510, “Structure of metallochaperone in complex with the cobalamin-binding domain of its target mutase provides insight into cofactor delivery” (Proceedings of the National Academy of Sciences of the …, 2023).

The labels stand for the following.
B2: MeaB from Methylobacterium extorquens (natural protein, UniProt Q8RPA0 1-329, looked up)
chain: MSATLPDMDTLRERLLAGDRAALARAITLAESRRADHRAAVRDLIDAVLPQTGRAIRVGITGVPGVGKSTTIDALGSLLTAAGHKVAVLAVDPSSTRTGGSILGDKTRMARLAIDRNAFIRPSPSSGTLGGVAAKTRETMLLCEAAGFDVILVETVGVGQSETAVADLTDFFLVLMLPGAGDELQGIKKGILELADMIAVNKADDGDGERRASAAASEYRAALRILTPPSATWTPPVVTISGLHGKGLDSLWSRIEGHRSKLTATGEIAGKRREQDVKWMWALVHERLHQRLVGSAEVRQATAEAERAVAGGEHSPAAGADAIATLIGL
notes: MeaB, G-protein chaperone of methylmalonyl-CoA mutase, Methylobacterium extorquens, WP_003597297.1; 329 residues (Met1 to Leu329 of 329 named in the model of chain B); Synthetic gene in pET28a at NdeI and XhoI; also called G-protein metallochaperone MeaB; source: E. coli Bl21 T7 Express, purified (Ni-NTA, Superdex 200 SEC)

Data set [1] has as its target B2. Kind of data set: cell-based or functional assay.
Data set [2] concerns the molecule itself. Kind of data set: SEC; analytical Superdex200 Increase 10/300 GL; each protein alone (50 µM MeaB); apparent molecular weights against gel filtration standards; 50 mM HEPES pH 7.5, 500 mM NaCl.
Data set [3] deals with B2. Description: SEC; analytical Superdex200 Increase 10/300 GL; 50 µM MeaB and 100 µM MeMCMcbl preincubated with 500 µM GMPPCP and 1 mM MgCl2; 50 mM HEPES pH 7.5, 500 mM NaCl; peaks identified by SDS-PAGE. Conditions: both partners purified. A general note: Size exclusion chromatography separates by hydrodynamic size, large species first.

B1: Cbl-binding domain of the alpha subunit of Methylobacterium extorquens methylmalonyl-CoA mutase (domain or fragment, UniProt C5AV67 545-712, looked up)
chain: RAQIRSISGVYKREVGGMSPVVEKVRGLVEAFEENDGRRPRILVAKMGQDGHDRGQKVIASAFADLGFDVDIGPLFATPDEAARQAVENDVHIVGVSSLAAGHLTLVPELKAALKQEGRDDVMIVVGGVIPPGDYDALYAAGASAIFPPGTVIAEAAVNLLGELNTRL
notes: alpha subunit has 712 residues; Two constructs were made (N-terminal HisTag, of low solubility; C-terminal HisTag in pET28a at NcoI and XhoI); The crystal holds the C-terminal HisTag form (residues 713 to 714 of the tag modelled in chain C); the same form is surmised for the SEC and GTPase experiments; also called MeMCMcbl; MCMcbl; source: E. coli Bl21 T7 Express, purified (Ni-NTA, Superdex75 …)
B1: the “GTPase activity of MeaB (2 µM) with MeMCMcbl (4 µM), 500 µM GTP: inorganic phosphate produced, against MeaB alone” value in data set [1] is 25 fold. For the same molecule, the stoichiometry N (in general, the number of molecules, sites or subunits per partner or assembly) is 2 in data set [2] and 1 MeMCMcbl dimer per MeaB dimer in data set [3].

In the case of B2, in data set [2], the “stoichiometry N” value is 2.
